Measurements: US20210087265A1 (PROGASTRINE ET CANCERS S R L, published 2021)

T1: human progastrin (human, UniProt P01350 22-101)
T1 construct: 80-residue progastrin, i.e. preprogastrin (AAB19304.1) without its 21-residue signal peptide; also called hPG; PG
T1 sequence: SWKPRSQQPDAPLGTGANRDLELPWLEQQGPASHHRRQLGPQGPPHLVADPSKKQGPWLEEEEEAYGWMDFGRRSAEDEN

B1: mAb13 (antibody, V domains shown)
VH: EVQLVESGGGLVQPGGSLKLSCAASGFIFSSYGMSWVRQSPDRRLELVASINTFGDRTYYPDSVKGRFTISRDNAKNTLYLQMTSLKSEDTAIYYCARGTGTYWGQGTTLTVSS
VL: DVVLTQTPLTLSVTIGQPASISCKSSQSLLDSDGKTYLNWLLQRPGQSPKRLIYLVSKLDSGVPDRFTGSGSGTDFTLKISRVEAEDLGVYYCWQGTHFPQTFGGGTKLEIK
notes: Murine monoclonal antibody from a hybridoma; also called hybridoma 2C6C3C7
B2: mAb3 (antibody, V domains shown)
VH: EVQLQQSGTVLARPGASVKMSCKASGYIFTSYWVHWVKQRPGQGLEWIGGFYPGNSDSRYNQKFKGKATLTAVTSASTAYMDLSSLTNEDSAVYFCTRRDSPQYWGQGTTLTVSS
VL: DVLMTQTPLSLPVSLGDQASISCRSSQSIVHSNGNTYLEWYLQKPGQSPKLLIYKVSNRFSGVPDRFSGSGSGTDFTLKISRLEAEDLGVYYCFQGSHVPFTFGGGTKLEIK
notes: Murine monoclonal antibody from a hybridoma; also called hybridoma 6B5B11C10
B3: mAb4 (antibody, V domains shown)
VH: QVQLQQSGAELMKPGASVKISCKATGYTFSSSWIEWLKQRPGHGLEWIGEFLPGSGSTDYNEKFKGKATFTADTSSDTAYMLLSSLTSEDSAVYYCATDGNYDWFAYWGQGTLVTVSA
VL: DLVMTQTPLSLPVSLGDQASISCRSSQSLVHSSGVTYLHWYLQKPGQSPKLLIYKVSNRFSGVPDRFSGSGSGTDFTLKISRVEAEDLGVYFCSQSTHVPPTFGSGTKLEIK
notes: Murine monoclonal antibody from a hybridoma; also called hybridoma 20D2C3G2
B4: mAb16 (antibody, V domains shown)
VH: QVQLQQSGAELVKPGASVKLSCKASGYTFTSYYMYWVKQRPGQGLEWIGEINPSNGGTNFNEKFKSKATLTVDKSSSTAYMQLSSLTSEDSAVYYCTRGGYYPFDYWGQGTTLTVSS
VL: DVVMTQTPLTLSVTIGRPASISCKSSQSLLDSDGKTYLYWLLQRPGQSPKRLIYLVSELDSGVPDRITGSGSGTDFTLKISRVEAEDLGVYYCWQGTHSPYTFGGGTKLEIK
notes: Murine monoclonal antibody from a hybridoma; also called hybridoma 1E9D9B6
B5: mAb19 (antibody, V domains shown)
VH: DVQLQESGPGLVKPSQSLSLTCTVTGYSITSDYAWNWIRQFPGNKLEWMGYISFSGYTSYNPSLKSRISVTRDTSRNQFFLQLTSVTTEDTATYYCAREVNYGDSYHFDYWGQGTIVTVSS
VL: QLALTQSSSASFSLGASAKLTCTLSSQHRTYTIEWYQQQSLKPPKYVMEVKKDGSHSTGHGIPDRFSGSSSGADRYLSISNIQPEDEAIYICGVGDAIKGQSVFVFGGGTKVTVL
notes: Murine monoclonal antibody from a hybridoma; also called hybridoma 1B3B4F11

Target: T1, human progastrin
Assay: epitope mapping (method not described)

| Binder | binding result |
| --- | --- |
| B1 | binds |
| B2 | binds |
| B3 | binds |
| B4 | binds |
| B5 | binds |
